# Assay results taken from US20230357348A1 (AstraZeneca / MedImmune, published 2023).
# Starred links: 1 amine or outer side, 2 acyl side, 3 side chain; linkers in the order of their positions; H or OH if unused. Non-standard residues stand in square brackets, D forms with d. Groups on a side chain read outwards from the residue. No end group written: not given here. *: point of attachment. C18 diacid = O=C(O)CCCCCCCCCCCCCCCCC(=O)*; γGlu = O=C(O)[C@H](CCC(=O)[*:2])N[*:1]; αMeF = C[C@](N)(Cc1ccccc1)C(=O)O; AEEA = NCCOCCOCC(=O)O; Aib = CC(C)(N)C(=O)O
# B1: Peptide 145 (peptide)
# peptide: H[Aib]QGTFTSDVSK[αMeF]LDSK([AEEA-AEEA-γGlu-C18 diacid])RAQDFVRWLASRGI-OH
# modifications: N-terminus assumed
# SMILES: CC[C@H](C)[C@H](NC(=O)CNC(=O)[C@H](CCCNC(=N)N)NC(=O)[C@H](CO)NC(=O)[C@H](C)NC(=O)[C@H](CC(C)C)NC(=O)[C@H](Cc1c[nH]c2ccccc12)NC(=O)[C@H](CCCNC(=N)N)NC(=O)[C@@H](NC(=O)[C@H](Cc1ccccc1)NC(=O)[C@H](CC(=O)O)NC(=O)[C@H](CCC(N)=O)NC(=O)[C@H](C)NC(=O)[C@H](CCCNC(=N)N)NC(=O)[C@H](CCCCNC(=O)COCCOCCNC(=O)COCCOCCNC(=O)CC[C@H](NC(=O)CCCCCCCCCCCCCCCCC(=O)O)C(=O)O)NC(=O)[C@H](CO)NC(=O)[C@H](CC(=O)O)NC(=O)[C@H](CC(C)C)NC(=O)[C@](C)(Cc1ccccc1)NC(=O)[C@H](CCCCN)NC(=O)[C@H](CO)NC(=O)[C@@H](NC(=O)[C@H](CC(=O)O)NC(=O)[C@H](CO)NC(=O)[C@@H](NC(=O)[C@H](Cc1ccccc1)NC(=O)[C@@H](NC(=O)CNC(=O)[C@H](CCC(N)=O)NC(=O)C(C)(C)NC(=O)[C@@H](N)Cc1c[nH]cn1)[C@@H](C)O)[C@@H](C)O)C(C)C)C(C)C)C(=O)O
# B2: Peptide 144 (peptide)
# peptide: H[Aib]QGTFTSDVSK[αMeF]LDSK([γGlu-γGlu-AEEA-AEEA-γGlu-γGlu-C18 diacid])RARDFVRWLLE[Aib]G-OH
# modifications: N-terminus assumed
# SMILES: CC(C)C[C@H](NC(=O)[C@H](Cc1c[nH]c2ccccc12)NC(=O)[C@H](CCCNC(=N)N)NC(=O)[C@@H](NC(=O)[C@H](Cc1ccccc1)NC(=O)[C@H](CC(=O)O)NC(=O)[C@H](CCCNC(=N)N)NC(=O)[C@H](C)NC(=O)[C@H](CCCNC(=N)N)NC(=O)[C@H](CCCCNC(=O)CC[C@H](NC(=O)CC[C@H](NC(=O)COCCOCCNC(=O)COCCOCCNC(=O)CC[C@H](NC(=O)CC[C@H](NC(=O)CCCCCCCCCCCCCCCCC(=O)O)C(=O)O)C(=O)O)C(=O)O)C(=O)O)NC(=O)[C@H](CO)NC(=O)[C@H](CC(=O)O)NC(=O)[C@H](CC(C)C)NC(=O)[C@](C)(Cc1ccccc1)NC(=O)[C@H](CCCCN)NC(=O)[C@H](CO)NC(=O)[C@@H](NC(=O)[C@H](CC(=O)O)NC(=O)[C@H](CO)NC(=O)[C@@H](NC(=O)[C@H](Cc1ccccc1)NC(=O)[C@@H](NC(=O)CNC(=O)[C@H](CCC(N)=O)NC(=O)C(C)(C)NC(=O)[C@@H](N)Cc1c[nH]cn1)[C@@H](C)O)[C@@H](C)O)C(C)C)C(C)C)C(=O)N[C@@H](CC(C)C)C(=O)N[C@@H](CCC(=O)O)C(=O)NC(C)(C)C(=O)NCC(=O)O
# B3: Peptide 149 (peptide)
# peptide: H[Aib]QGTFTSDVSK[αMeF]LDSK([AEEA-AEEA-γGlu-C18 diacid])RAQDFVRWVVE[Aib]G-OH
# modifications: N-terminus assumed
# SMILES: CC(C)C[C@H](NC(=O)[C@](C)(Cc1ccccc1)NC(=O)[C@H](CCCCN)NC(=O)[C@H](CO)NC(=O)[C@@H](NC(=O)[C@H](CC(=O)O)NC(=O)[C@H](CO)NC(=O)[C@@H](NC(=O)[C@H](Cc1ccccc1)NC(=O)[C@@H](NC(=O)CNC(=O)[C@H](CCC(N)=O)NC(=O)C(C)(C)NC(=O)[C@@H](N)Cc1c[nH]cn1)[C@@H](C)O)[C@@H](C)O)C(C)C)C(=O)N[C@@H](CC(=O)O)C(=O)N[C@@H](CO)C(=O)N[C@@H](CCCCNC(=O)COCCOCCNC(=O)COCCOCCNC(=O)CC[C@H](NC(=O)CCCCCCCCCCCCCCCCC(=O)O)C(=O)O)C(=O)N[C@@H](CCCNC(=N)N)C(=O)N[C@@H](C)C(=O)N[C@@H](CCC(N)=O)C(=O)N[C@@H](CC(=O)O)C(=O)N[C@@H](Cc1ccccc1)C(=O)N[C@H](C(=O)N[C@@H](CCCNC(=N)N)C(=O)N[C@@H](Cc1c[nH]c2ccccc12)C(=O)N[C@H](C(=O)N[C@H](C(=O)N[C@@H](CCC(=O)O)C(=O)NC(C)(C)C(=O)NCC(=O)O)C(C)C)C(C)C)C(C)C
# B4: Peptide 146 (peptide)
# peptide: H[Aib]QGTFTSDVSK[αMeF]LDSK([AEEA-AEEA-γGlu-C18 diacid])RAQDFVRWLASR-OH
# modifications: N-terminus assumed
# SMILES: CC(C)C[C@H](NC(=O)[C@H](Cc1c[nH]c2ccccc12)NC(=O)[C@H](CCCNC(=N)N)NC(=O)[C@@H](NC(=O)[C@H](Cc1ccccc1)NC(=O)[C@H](CC(=O)O)NC(=O)[C@H](CCC(N)=O)NC(=O)[C@H](C)NC(=O)[C@H](CCCNC(=N)N)NC(=O)[C@H](CCCCNC(=O)COCCOCCNC(=O)COCCOCCNC(=O)CC[C@H](NC(=O)CCCCCCCCCCCCCCCCC(=O)O)C(=O)O)NC(=O)[C@H](CO)NC(=O)[C@H](CC(=O)O)NC(=O)[C@H](CC(C)C)NC(=O)[C@](C)(Cc1ccccc1)NC(=O)[C@H](CCCCN)NC(=O)[C@H](CO)NC(=O)[C@@H](NC(=O)[C@H](CC(=O)O)NC(=O)[C@H](CO)NC(=O)[C@@H](NC(=O)[C@H](Cc1ccccc1)NC(=O)[C@@H](NC(=O)CNC(=O)[C@H](CCC(N)=O)NC(=O)C(C)(C)NC(=O)[C@@H](N)Cc1c[nH]cn1)[C@@H](C)O)[C@@H](C)O)C(C)C)C(C)C)C(=O)N[C@@H](C)C(=O)N[C@@H](CO)C(=O)N[C@@H](CCCNC(=N)N)C(=O)O
# B5: Peptide 148 (peptide)
# peptide: H[Aib]QGTFTSDVSK[αMeF]LDSK([AEEA-AEEA-γGlu-C18 diacid])RAQDFVRWIAE[Aib]G-OH
# modifications: N-terminus assumed
# SMILES: CC[C@H](C)[C@H](NC(=O)[C@H](Cc1c[nH]c2ccccc12)NC(=O)[C@H](CCCNC(=N)N)NC(=O)[C@@H](NC(=O)[C@H](Cc1ccccc1)NC(=O)[C@H](CC(=O)O)NC(=O)[C@H](CCC(N)=O)NC(=O)[C@H](C)NC(=O)[C@H](CCCNC(=N)N)NC(=O)[C@H](CCCCNC(=O)COCCOCCNC(=O)COCCOCCNC(=O)CC[C@H](NC(=O)CCCCCCCCCCCCCCCCC(=O)O)C(=O)O)NC(=O)[C@H](CO)NC(=O)[C@H](CC(=O)O)NC(=O)[C@H](CC(C)C)NC(=O)[C@](C)(Cc1ccccc1)NC(=O)[C@H](CCCCN)NC(=O)[C@H](CO)NC(=O)[C@@H](NC(=O)[C@H](CC(=O)O)NC(=O)[C@H](CO)NC(=O)[C@@H](NC(=O)[C@H](Cc1ccccc1)NC(=O)[C@@H](NC(=O)CNC(=O)[C@H](CCC(N)=O)NC(=O)C(C)(C)NC(=O)[C@@H](N)Cc1c[nH]cn1)[C@@H](C)O)[C@@H](C)O)C(C)C)C(C)C)C(=O)N[C@@H](C)C(=O)N[C@@H](CCC(=O)O)C(=O)NC(C)(C)C(=O)NCC(=O)O
# B6: Peptide 143 (peptide)
# peptide: H[Aib]QGTFTSDVSK[αMeF]LDSK([AEEA-AEEA-γGlu-C18 diacid])RARDFVQWLLE[Aib]G-OH
# modifications: N-terminus assumed
# SMILES: CC(C)C[C@H](NC(=O)[C@H](Cc1c[nH]c2ccccc12)NC(=O)[C@H](CCC(N)=O)NC(=O)[C@@H](NC(=O)[C@H](Cc1ccccc1)NC(=O)[C@H](CC(=O)O)NC(=O)[C@H](CCCNC(=N)N)NC(=O)[C@H](C)NC(=O)[C@H](CCCNC(=N)N)NC(=O)[C@H](CCCCNC(=O)COCCOCCNC(=O)COCCOCCNC(=O)CC[C@H](NC(=O)CCCCCCCCCCCCCCCCC(=O)O)C(=O)O)NC(=O)[C@H](CO)NC(=O)[C@H](CC(=O)O)NC(=O)[C@H](CC(C)C)NC(=O)[C@](C)(Cc1ccccc1)NC(=O)[C@H](CCCCN)NC(=O)[C@H](CO)NC(=O)[C@@H](NC(=O)[C@H](CC(=O)O)NC(=O)[C@H](CO)NC(=O)[C@@H](NC(=O)[C@H](Cc1ccccc1)NC(=O)[C@@H](NC(=O)CNC(=O)[C@H](CCC(N)=O)NC(=O)C(C)(C)NC(=O)[C@@H](N)Cc1c[nH]cn1)[C@@H](C)O)[C@@H](C)O)C(C)C)C(C)C)C(=O)N[C@@H](CC(C)C)C(=O)N[C@@H](CCC(=O)O)C(=O)NC(C)(C)C(=O)NCC(=O)O
# B7: Peptide 147 (peptide)
# peptide: H[Aib]QGTFTSDVSK[αMeF]LDSK([AEEA-AEEA-γGlu-C18 diacid])RAQDFVRWLEA[Aib]G-OH
# modifications: N-terminus assumed
# SMILES: CC(C)C[C@H](NC(=O)[C@H](Cc1c[nH]c2ccccc12)NC(=O)[C@H](CCCNC(=N)N)NC(=O)[C@@H](NC(=O)[C@H](Cc1ccccc1)NC(=O)[C@H](CC(=O)O)NC(=O)[C@H](CCC(N)=O)NC(=O)[C@H](C)NC(=O)[C@H](CCCNC(=N)N)NC(=O)[C@H](CCCCNC(=O)COCCOCCNC(=O)COCCOCCNC(=O)CC[C@H](NC(=O)CCCCCCCCCCCCCCCCC(=O)O)C(=O)O)NC(=O)[C@H](CO)NC(=O)[C@H](CC(=O)O)NC(=O)[C@H](CC(C)C)NC(=O)[C@](C)(Cc1ccccc1)NC(=O)[C@H](CCCCN)NC(=O)[C@H](CO)NC(=O)[C@@H](NC(=O)[C@H](CC(=O)O)NC(=O)[C@H](CO)NC(=O)[C@@H](NC(=O)[C@H](Cc1ccccc1)NC(=O)[C@@H](NC(=O)CNC(=O)[C@H](CCC(N)=O)NC(=O)C(C)(C)NC(=O)[C@@H](N)Cc1c[nH]cn1)[C@@H](C)O)[C@@H](C)O)C(C)C)C(C)C)C(=O)N[C@@H](CCC(=O)O)C(=O)N[C@@H](C)C(=O)NC(C)(C)C(=O)NCC(=O)O
# Biological target: human glucagon receptor (hGCGR) (human, UniProt P47871 26-477)
# Sequence (P47871 26-477): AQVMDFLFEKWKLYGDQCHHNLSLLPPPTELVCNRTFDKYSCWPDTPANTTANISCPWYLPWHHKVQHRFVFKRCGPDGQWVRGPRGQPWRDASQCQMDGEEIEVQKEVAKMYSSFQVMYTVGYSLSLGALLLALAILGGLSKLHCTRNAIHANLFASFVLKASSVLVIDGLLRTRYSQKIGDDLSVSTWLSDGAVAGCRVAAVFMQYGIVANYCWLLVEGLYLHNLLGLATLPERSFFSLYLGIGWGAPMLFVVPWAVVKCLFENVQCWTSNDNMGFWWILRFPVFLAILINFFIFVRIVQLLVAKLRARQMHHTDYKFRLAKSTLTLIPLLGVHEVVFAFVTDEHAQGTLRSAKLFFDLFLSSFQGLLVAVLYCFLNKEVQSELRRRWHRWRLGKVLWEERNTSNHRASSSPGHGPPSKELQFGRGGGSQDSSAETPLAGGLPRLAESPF
# Test: cell-based or functional assay
row,hGluc-R EC50 (pM),Binder
1,4590 pM,B1
2,702 pM,B2
3,2650 pM,B3
4,1630 pM,B4
5,568 pM,B5
6,32.6 pM,B6
7,43.5 pM,B7

# Biological target: human GLP-1 receptor (hGLP-1R) (human, UniProt P43220 24-463)
# Test: cell-based or functional assay
row,hGLP-1R EC50 (pM),Binder
1,22.6 pM,B1
2,45.2 pM,B2
3,8.71 pM,B3
4,24.6 pM,B4
5,40.2 pM,B5
6,19.1 pM,B6
7,15.3 pM,B7
